Results: US20140087995A1 (published 2014)
Numbered stars: 1 amine (or outer) side, 2 acyl side, 3 side chain; on linkers, the order of the positions; unused ones are H or OH. Bridge positions count the residues as written; N and C are the ends. Side chains are listed from the residue outwards. Ends that are not written are not given here. * marks the point of attachment. C20 diacid = O=C(O)CCCCCCCCCCCCCCCCCCC(=O)*; γGlu = O=C(O)[C@H](CCC(=O)[*:2])N[*:1]

T1: human amylin receptor (amylin 3(a) receptor: human calcitonin receptor with RAMP-3) (human, UniProt P30988 25-474; O60896 24-148)
T1 construct: whole, on cells; the functional assay (Assay IIa) used the whole cells; also called hAmylin-R; hAmylinR
T1 sequence (looked up) 1: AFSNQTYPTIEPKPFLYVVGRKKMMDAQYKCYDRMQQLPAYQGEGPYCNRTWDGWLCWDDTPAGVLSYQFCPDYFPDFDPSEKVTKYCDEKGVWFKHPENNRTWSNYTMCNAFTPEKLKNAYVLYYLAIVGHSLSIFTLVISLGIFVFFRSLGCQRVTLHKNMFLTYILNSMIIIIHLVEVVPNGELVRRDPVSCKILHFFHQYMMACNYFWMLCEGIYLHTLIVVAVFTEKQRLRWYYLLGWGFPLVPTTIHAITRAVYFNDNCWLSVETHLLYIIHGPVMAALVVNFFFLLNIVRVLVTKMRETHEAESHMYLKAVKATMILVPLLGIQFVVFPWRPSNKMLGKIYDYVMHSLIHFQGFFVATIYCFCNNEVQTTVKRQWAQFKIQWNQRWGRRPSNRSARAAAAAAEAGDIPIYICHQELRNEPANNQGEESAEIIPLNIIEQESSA
T1 sequence (looked up) 2: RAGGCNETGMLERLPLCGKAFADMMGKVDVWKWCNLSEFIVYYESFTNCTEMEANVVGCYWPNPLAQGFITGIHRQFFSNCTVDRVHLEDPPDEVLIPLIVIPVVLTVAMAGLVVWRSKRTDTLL

T2: human calcitonin receptor (human, UniProt P30988 25-474)
T2 sequence (looked up): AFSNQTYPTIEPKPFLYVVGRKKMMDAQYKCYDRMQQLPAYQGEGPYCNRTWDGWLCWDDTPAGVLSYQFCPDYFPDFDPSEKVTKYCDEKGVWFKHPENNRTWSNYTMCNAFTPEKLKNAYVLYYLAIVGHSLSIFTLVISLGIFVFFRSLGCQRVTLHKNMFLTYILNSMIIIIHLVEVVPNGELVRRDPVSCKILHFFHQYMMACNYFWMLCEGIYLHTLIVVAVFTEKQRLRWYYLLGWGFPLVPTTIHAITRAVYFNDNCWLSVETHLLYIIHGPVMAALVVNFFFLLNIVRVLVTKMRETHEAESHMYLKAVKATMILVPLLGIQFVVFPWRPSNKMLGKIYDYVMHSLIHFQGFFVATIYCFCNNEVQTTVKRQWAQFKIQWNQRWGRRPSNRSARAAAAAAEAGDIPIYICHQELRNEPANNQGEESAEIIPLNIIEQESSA

T3: human calcitonin receptor (human, UniProt P30988 25-474)
T3 construct: whole, on cells; Membranes in a scintillation proximity assay (Assay VII); also called hCTR; hCT
T3 sequence (looked up): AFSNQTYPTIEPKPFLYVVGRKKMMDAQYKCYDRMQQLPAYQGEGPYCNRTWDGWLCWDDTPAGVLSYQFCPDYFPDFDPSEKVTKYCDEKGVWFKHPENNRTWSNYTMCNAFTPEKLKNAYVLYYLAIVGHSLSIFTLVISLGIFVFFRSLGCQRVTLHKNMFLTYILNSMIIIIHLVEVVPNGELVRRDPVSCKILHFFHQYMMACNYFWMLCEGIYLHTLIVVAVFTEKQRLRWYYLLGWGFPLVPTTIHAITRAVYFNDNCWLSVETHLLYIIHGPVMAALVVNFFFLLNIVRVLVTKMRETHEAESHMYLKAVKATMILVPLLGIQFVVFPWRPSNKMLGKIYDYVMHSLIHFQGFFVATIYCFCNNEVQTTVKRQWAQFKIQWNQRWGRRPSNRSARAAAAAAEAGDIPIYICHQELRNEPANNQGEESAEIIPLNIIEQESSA


Legend:
[1] = molecular target: T1, human amylin receptor (amylin 3(a) …); assay: SPA competition, displacement of 125I-rat amylin from membranes of BHK cells with the human amylin 3(a) receptor
Protocol: The binding assay was performed using scintillation proximity assay (SPA) beads (RPNQ0001) from PerkinElmer and cell membranes from the Amylin 3(a)/CRE-luc cells (as described in Assay (II)) were used. Membranes were prepared in the following way; the cells were rinsed with PBS and incubated with Versene for approximately 5 min before harvesting. The cells were flushed with PBS and the cell-suspension was centrifuged for 5 min at 1000 rpm. Cells were homogenized (ultrathurrax) in a buffer containing 20 mM Na-HEPES and 10 mM EDTA (pH 7.4) and centrifuged at 20.000 rpm for 15 min. The resulting pellet was resuspended, homogenized and centrifuged (20.000 rpm, 15 min) in a buffer containing 20 mM Na-HEPES and 0.1 mM EDTA (pH 7.4, buffer 2). The resulting pellet was resuspended in buffer 2 and protein concentration was measured (BCA protein Assay, Pierce). The homogenate was kept cold during the whole procedure. The membranes were kept at −80° C. until use. The assay was performed in a 384 well Optiplate (PerkinElmer) in a total volume of 40 ul. Membranes were mixed with SPA beads. Final concentration of membranes 35 ng/μL final and SPA beads was 0.05 mg/well. Test-compounds were dissolved in DMSO and further diluted in assay buffer (50 mM Hepes, pH 7.4, 1 mM CaCl2, 5 mM MgCl₂, 0.1% OA and 0.02% Tween20). […] The final mixture was incubated with shaking at 400 rpm for 120 min at 25° C. prior to centrifugation (1500 rpm, 10 min). Samples were analyzed on TopCounter™ (Packard). The IC₅₀ was calculated using (one site binding competition analysis) GraphPad Prism5 as a measure of receptor affinity.

[2] = molecular target: T1, human amylin receptor (amylin 3(a) …); assay: cell-based or functional assay
[3] = molecular target: T2, human calcitonin receptor; assay: cell-based or functional assay
[4] = molecular target: T3, human calcitonin receptor; assay: ratio of IC50 at human calcitonin receptor to IC50 at human amylin receptor (reference), SPA binding assays
Protocol: The resulting pellet was resuspended, homogenized and centrifuged (20.000 rpm, 15 min) in a buffer containing 20 mM Na-HEPES and 0.1 mM EDTA (pH 7.4, buffer 2). The resulting pellet was resuspended in buffer 2 and protein concentration was measured (BCA protein Assay, Pierce). The homogenate was kept cold during the whole procedure. The membranes were kept at −80° C. until use. The assay was performed in a 384 well Optiplate (PerkinElmer) in a total volume of 40 ul. Membranes were mixed with SPA beads. Final concentration of membranes 35 ng/μL final and SPA beads was 0.05 mg/well. Test-compounds were dissolved in DMSO and further diluted in assay buffer (50 mM Hepes, pH 7.4, 1 mM CaCl2, 5 mM MgCl₂, 0.1% OA and 0.02% Tween20). […] The final mixture was incubated with shaking at 400 rpm for 120 min at 25° C. prior to centrifugation (1500 rpm, 10 min). Samples were analyzed on TopCounter™ (Packard). The IC₅₀ was calculated using (one site binding competition analysis) GraphPad Prism5 as a measure of receptor affinity.
Membranes were prepared in the following way; the cells were rinsed with PBS and incubated with Versene for approximately 5 min before harvesting. The cells were flushed with PBS and the cell-suspension was centrifuged for 5 min at 1000 rpm. Cells were homogenized (Ultrathurrax) in a buffer containing 20 mM Na-HEPES and 10 mM EDTA (pH 7.4) and centrifuged at 20.000 rpm for 15 min. The resulting pellet was resuspended, homogenized and centrifuged (20.000 rpm, 15 min) in a buffer containing 20 mM Na-HEPES and 0.1 mM EDTA (pH 7.4, buffer 2). The resulting pellet was resuspended in buffer 2 and protein concentration was measured (BCA protein Assay, Pierce). The homogenate was kept cold during the whole procedure. The membranes were kept at −80° C. until use. Assay was performed in a 384 well Optiplate (PerkinElmer) in a total volume of 40 ul. Membranes were mixed with SPA beads.

[5] = molecular target: T3, human calcitonin receptor; assay: SPA competition binding, displacement of 125I-calcitonin from membranes with human calcitonin receptor (Assay VII)
Protocol: Membranes were prepared in the following way; the cells were rinsed with PBS and incubated with Versene for approximately 5 min before harvesting. The cells were flushed with PBS and the cell-suspension was centrifuged for 5 min at 1000 rpm. Cells were homogenized (Ultrathurrax) in a buffer containing 20 mM Na-HEPES and 10 mM EDTA (pH 7.4) and centrifuged at 20.000 rpm for 15 min. The resulting pellet was resuspended, homogenized and centrifuged (20.000 rpm, 15 min) in a buffer containing 20 mM Na-HEPES and 0.1 mM EDTA (pH 7.4, buffer 2). The resulting pellet was resuspended in buffer 2 and protein concentration was measured (BCA protein Assay, Pierce). The homogenate was kept cold during the whole procedure. The membranes were kept at −80° C. until use. Assay was performed in a 384 well Optiplate (PerkinElmer) in a total volume of 40 ul. Membranes were mixed with SPA beads. Final concentration of membranes 35 ng/μL final and Final concentration of SPA beads was 0.05 mg/well. Test-compounds were dissolved in DMSO and further diluted in assay buffer (50 mM Hepes, pH 7.4, 1 mM CaCl2, 5 mM MgCl₂, 0.1% OA and 0.02% Tween20). […] The final mixture was incubated for 120 min with shaking at 400 rpm at 25° C. prior to centrifugation (1500 rpm, 10 min). Samples were analyzed on TopCounter™ (Packard). The […] was calculated using (one site binding competition analysis) GraphPad Prism5 as a measure of receptor affinity.

Binder	IC50 [1]	hAmylin-R funct. EC50 [2]	Ratio hCT/hAmylin funct. [3]	hCTR funct. EC50 [3]	Ratio hCT/hAmylin binding [4]	IC50 [5]
K([γGlu-γGlu-C20 diacid])CNTATCATQRLADFLRHSSNPFGAPLSSTNVGSDTY-NH2 (disulfide 2-7; N-terminus assumed; SMILES CC(C)C[C@H](NC(=O)[C@H](CCCNC(=N)N)NC(=O)[C@H](CCC(N)=O)NC(=O)[C@@H](NC(=O)[C@H](C)NC(=O)[C@@H]1CSSC[C@H](NC(=O)[C@@H](N)CCCCNC(=O)CC[C@H](NC(=O)CC[C@H](NC(=O)CCCCCCCCCCCCCCCCCCC(=O)O)C(=O)O)C(=O)O)C(=O)N[C@@H](CC(N)=O)C(=O)N[C@@H]([C@@H](C)O)C(=O)N[C@@H](C)C(=O)N[C@@H]([C@@H](C)O)C(=O)N1)[C@@H](C)O)C(=O)N[C@@H](C)C(=O)N[C@@H](CC(=O)O)C(=O)N[C@@H](Cc1ccccc1)C(=O)N[C@@H](CC(C)C)C(=O)N[C@@H](CCCNC(=N)N)C(=O)N[C@@H](Cc1c[nH]cn1)C(=O)N[C@@H](CO)C(=O)N[C@@H](CO)C(=O)N[C@@H](CC(N)=O)C(=O)N1CCC[C@H]1C(=O)N[C@@H](Cc1ccccc1)C(=O)NCC(=O)N[C@@H](C)C(=O)N1CCC[C@H]1C(=O)N[C@@H](CC(C)C)C(=O)N[C@@H](CO)C(=O)N[C@@H](CO)C(=O)N[C@H](C(=O)N[C@@H](CC(N)=O)C(=O)N[C@H](C(=O)NCC(=O)N[C@@H](CO)C(=O)N[C@@H](CC(=O)O)C(=O)N[C@H](C(=O)N[C@@H](Cc1ccc(O)cc1)C(N)=O)[C@@H](C)O)C(C)C)[C@@H](C)O, also called compound 3)	1.13 nM	0.205 nM	6.7	1.38 nM		
K([γGlu-γGlu-C20 diacid])CNTATCATQRLADFLRHSSPNFGAIPSSTNVGPRTY-NH2 (disulfide 2-7 (inferred), also called compound 130)					280	127 nM
